Measured values: paper PMC5099872 (Cell Research, 2016)

B1: Sre1-CTD WY mutant, residues 628-896, W702D/Y703D (domain or fragment, Schizosaccharomyces pombe, UniProt Q9UUD1 628-896, looked up)
chain: QHSKSSVHAELRELPECTANLIENSHADDVFSPNMVERLWVLAKCTRDSAQMSDSIISSLSDVLVLSPLEVLASDDAADLLDALLMESLSRKVEISEIEEIISLCPKNSSIIRHALLAKLVLFPENTADSLNEVLAAYKNTLDLCSQDKRKQSSVLKINLSKLFTLHSCLSLALQRLGYGDVSKRMYQEIFVPDSDADITPLSFIISWTALNTFAPICTSPKENDVVEKMAMYVRTAIGTLKIQDLKLSRKLINSCIDIGSRLQEDLGY
B2: Sre1-CTD ΔC-tail variant, residues 628-876, C644S/C672S (domain or fragment, Schizosaccharomyces pombe, UniProt Q9UUD1 628-876, looked up)
chain: QHSKSSVHAELRELPESTANLIENSHADDVFSPNMVERLWVLAKSTRDSAQMSDSIISSLSDVLVLSPLEVLASWYAADLLDALLMESLSRKVEISEIEEIISLCPKNSSIIRHALLAKLVLFPENTADSLNEVLAAYKNTLDLCSQDKRKQSSVLKINLSKLFTLHSCLSLALQRLGYGDVSKRMYQEIFVPDSDADITPLSFIISWTALNTFAPICTSPKENDVVEKMAMYVRTAIGTLKIQDLKLS

Key:
AUC = target: the molecule itself; test: AUC
crystal structure = target: the molecule itself; test: crystal structure

Protein	stoichiometry N (AUC)	stoichiometry N (crystal structure)
B1	2	–
B2	–	2
